Results taken from patent US20140147456A1 (AFFIRIS, published 2014).

T1: recombinantly expressed human CETP N-terminally fused to GST (human, UniProt P11597 18-493, limits assumed)
T1 construct: coated antigen of the protein ELISA; also called GST-CETP; CETP protein; not shown: GST (Glutathione-S-transferase) tag at the N-terminus
T1 sequence (looked up): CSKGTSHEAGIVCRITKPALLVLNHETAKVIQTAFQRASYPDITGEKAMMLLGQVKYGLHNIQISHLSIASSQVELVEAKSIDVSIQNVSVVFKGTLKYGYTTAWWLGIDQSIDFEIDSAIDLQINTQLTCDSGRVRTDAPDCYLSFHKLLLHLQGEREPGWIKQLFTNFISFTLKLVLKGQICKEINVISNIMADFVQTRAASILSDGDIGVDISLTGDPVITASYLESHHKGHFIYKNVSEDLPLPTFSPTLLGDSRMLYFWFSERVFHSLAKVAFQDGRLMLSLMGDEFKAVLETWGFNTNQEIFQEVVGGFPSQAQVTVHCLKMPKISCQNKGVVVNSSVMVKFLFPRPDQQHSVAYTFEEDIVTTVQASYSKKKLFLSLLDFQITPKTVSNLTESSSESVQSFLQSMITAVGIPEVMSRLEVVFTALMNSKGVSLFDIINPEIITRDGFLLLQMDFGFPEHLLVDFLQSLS

B1: monoclonal antibody CJ7-6-B7 (antibody, V domains shown)
VH: NVQLQESGPGLVKPSQSLSLTCTVTGHSITSDYAWNWIRQFPGNKLEWMGYITNSGSTTYNPSLKSRISITRDTSKNQFFLQLNSVTTEDTATYYCTRGGPYWGQGTLVTVSA
VL: DIVMTQSQKFMSTSVGDRVSITCKASQNVGTAVVWYQQKPGQSPKLLIYSASNRYTGVPDRFTGSGSGTDFTLTITNMQSEDLADYFCQQYSSYPLTFGAGTKLELK
B2: monoclonal antibody 5/C7-6-C8 (antibody, V domains shown)
VH: EVQLVESGGGLVEPGGSLKLSCVASGFTFSTYAMSWFRLTPERRLEWVAAISNGGSQNSYPDSVKGRFTVSRDNAKNTLYLQMSSLRSEDTAMYYCSRNGNYFDYWGQGTTLTVSS
VL: QIVLTQSPAIMSASPGEKVTMTCSASSSISYMHWYQQKPGTSPKRWIFDTSKLASGVPARFSGSGSGTSYSLTISSMEAEDAATYYCHQRSSYPTFGSGTKLEIK
B3: monoclonal antibody BTS4-1 (antibody, V domains shown)
VH: QIQLVQSGPELKKPGETVKISCKASGYTFTDCSMHWVKQAPGQGLKWMGWINTKTGEPTYADDFKGRFAFSLETSASTAYLQINILKNEDSATYFCAAHSGKDYAIDYWGQGTSVTVSS
VL: DVLMTQTPLSLPVSLGDQASISCRSSQSIVHRNGNTYLEWYLQKPGQSPKLLIYKVSNRFSGVPDRFSGSGSGTDFTLRISRVEAQDLGVYFCFQGSRVPPTFGGGTKLEIK
B4: monoclonal antibody 12/B3-5-B11 (antibody, V domains shown)
VH: DVQLQESGPGLVKPSQSLSLTCTVTGYSITSDYAWNWIRQFPGNKLEWMGYISYSGTTTYNPSLKSRISITRHTSKNQFFLQLNSVTTEDSATYYCTRLGYYFDYWGQGTTLTVSS
VL: DIVMTQSPASLAMSVGQKVTMNCKSSQSLLSSKNQKNFLAWYQQKPGQSPKVLVYFASTRASGVPDRFIGSGSGTDFTLTISSVQAEDLADYFCQQQYNTPLTFGAGTKLELK

Target: T1, recombinantly expressed human CETP …
Assay: human CETP protein ELISA, coated protein, antibody titrated

binding result	Binder
binds	B1
binds	B2
binds	B3
binds	B4
